Data as given in patent publication US20250340643A1 (AstraZeneca / MedImmune, published 2025).
Read-outs that look alike come from different tables or passages of the source.

T1: CTLA4 on the cells of the reporter gene bioassay (human, UniProt P16410 36-223)
T1 sequence (looked up): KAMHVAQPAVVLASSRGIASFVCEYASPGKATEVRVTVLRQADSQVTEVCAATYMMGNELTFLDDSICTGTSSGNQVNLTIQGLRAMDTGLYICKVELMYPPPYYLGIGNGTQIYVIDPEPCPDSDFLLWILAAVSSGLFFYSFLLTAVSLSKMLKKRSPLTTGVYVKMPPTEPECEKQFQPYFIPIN


Experiments:
[1] = biological target: T1, CTLA4 on the cells of the reporter gene …; experiment: cell-based or functional assay
recombinant FcRn [2] = biological target: T2, recombinant FcRn (UniProt P55899 24-297; P61769 21-119, limits assumed); experiment: SPR, recombinant FcRn immobilized on the sensor; relative to Reference Standard
T2 construct: also called Neonatal Fc Receptor
Description: (§1) A surface plasmon resonance binding assay was used to measure FcRn binding. This method is based on the ability of the test sample to bind to recombinant FcRn that has been immobilized on an SPR sensor surface. A reference flow cell was created using the same standard amine coupling procedure without the addition of FcRn.

[3] = biological target: T1, CTLA4 on the cells of the reporter gene …; experiment: cell-based or functional assay; remark: listed apart in the source
recombinant FcRn [4] = biological target: T2, recombinant FcRn; experiment: SPR, recombinant FcRn immobilized on the sensor; relative to Reference Standard; remark: listed apart in the source
Description: as §1

Relative Potency (%) [1]	Relative FcRn Binding (%) (recombinant FcRn [2])	Relative Potency (%) [3]	Relative FcRn Binding (%) (recombinant FcRn [4])	Binder
87%	78%	–	–	Tremelimumab, photo-stressed, DP 1x ICH (antibody, human IgG2, kappa, oxidation by peptide mapping: Trp-52 10.9%, Met-256 12.1%, Met-362 3.8%, Met-401 4.1%, Met-432 11.9%) heavy: QVQLVESGGGVVQPGRSLRLSCAASGFTFSSYGMHWVRQAPGKGLEWVAVIWYDGSNKYYADSVKGRFTISRDNSKNTLYLQMNSLRAEDTAVYYCARDPRGATLYYYYYGMDVWGQGTTVTVSSASTKGPSVFPLAPCSRSTSESTAALGCLVKDYFPEPVTVSWNSGALTSGVHTFPAVLQSSGLYSLSSVVTVPSSNFGTQTYTCNVDHKPSNTKVDKTVERKCCVECPPCPAPPVAGPSVFLFPPKPKDTLMISRTPEVTCVVVDVSHEDPEVQFNWYVDGVEVHNAKTKPREEQFNSTFRVVSVLTVVHQDWLNGKEYKCKVSNKGLPAPIEKTISKTKGQPREPQVYTLPPSREEMTKNQVSLTCLVKGFYPSDIAVEWESNGQPENNYKTTPPMLDSDGSFFLYSKLTVDKSRWQQGNVFSCSVMHEALHNHYTQKSLSLSPGK light: not shown
59%	41%	–	–	Tremelimumab, photo-stressed, DP 3x ICH (antibody, human IgG2, kappa, oxidation by peptide mapping: Trp-52 36.7%, Met-256 41.9%, Met-362 12.8%, Met-401 15.8%, Met-432 34.6%) heavy: QVQLVESGGGVVQPGRSLRLSCAASGFTFSSYGMHWVRQAPGKGLEWVAVIWYDGSNKYYADSVKGRFTISRDNSKNTLYLQMNSLRAEDTAVYYCARDPRGATLYYYYYGMDVWGQGTTVTVSSASTKGPSVFPLAPCSRSTSESTAALGCLVKDYFPEPVTVSWNSGALTSGVHTFPAVLQSSGLYSLSSVVTVPSSNFGTQTYTCNVDHKPSNTKVDKTVERKCCVECPPCPAPPVAGPSVFLFPPKPKDTLMISRTPEVTCVVVDVSHEDPEVQFNWYVDGVEVHNAKTKPREEQFNSTFRVVSVLTVVHQDWLNGKEYKCKVSNKGLPAPIEKTISKTKGQPREPQVYTLPPSREEMTKNQVSLTCLVKGFYPSDIAVEWESNGQPENNYKTTPPMLDSDGSFFLYSKLTVDKSRWQQGNVFSCSVMHEALHNHYTQKSLSLSPGK light: not shown

The next lines start with the binder.

Binder	Relative Potency (%) [1]	Relative FcRn Binding (%) (recombinant FcRn [2])	Relative Potency (%) [3]	Relative FcRn Binding (%) (recombinant FcRn [4])
Tremelimumab, photo-stress study according to ICH guideline, Dark control (antibody, human IgG2, kappa, oxidation by peptide mapping: Trp-52 3.3%, Met-256 2.8%, Met-362 1.3%, Met-401 1.3%, Met-432 0.6%) heavy: QVQLVESGGGVVQPGRSLRLSCAASGFTFSSYGMHWVRQAPGKGLEWVAVIWYDGSNKYYADSVKGRFTISRDNSKNTLYLQMNSLRAEDTAVYYCARDPRGATLYYYYYGMDVWGQGTTVTVSSASTKGPSVFPLAPCSRSTSESTAALGCLVKDYFPEPVTVSWNSGALTSGVHTFPAVLQSSGLYSLSSVVTVPSSNFGTQTYTCNVDHKPSNTKVDKTVERKCCVECPPCPAPPVAGPSVFLFPPKPKDTLMISRTPEVTCVVVDVSHEDPEVQFNWYVDGVEVHNAKTKPREEQFNSTFRVVSVLTVVHQDWLNGKEYKCKVSNKGLPAPIEKTISKTKGQPREPQVYTLPPSREEMTKNQVSLTCLVKGFYPSDIAVEWESNGQPENNYKTTPPMLDSDGSFFLYSKLTVDKSRWQQGNVFSCSVMHEALHNHYTQKSLSLSPGK light: not shown	107%	91%	–	–
Tremelimumab, photo-stress study at 2000 lux, t = 0 control (antibody, human IgG2, kappa, oxidation by peptide mapping: Trp-52 0.7%, Met-256 3.3%, Met-362 1.4%, Met-401 1.6%, Met-432 1.0%) heavy: QVQLVESGGGVVQPGRSLRLSCAASGFTFSSYGMHWVRQAPGKGLEWVAVIWYDGSNKYYADSVKGRFTISRDNSKNTLYLQMNSLRAEDTAVYYCARDPRGATLYYYYYGMDVWGQGTTVTVSSASTKGPSVFPLAPCSRSTSESTAALGCLVKDYFPEPVTVSWNSGALTSGVHTFPAVLQSSGLYSLSSVVTVPSSNFGTQTYTCNVDHKPSNTKVDKTVERKCCVECPPCPAPPVAGPSVFLFPPKPKDTLMISRTPEVTCVVVDVSHEDPEVQFNWYVDGVEVHNAKTKPREEQFNSTFRVVSVLTVVHQDWLNGKEYKCKVSNKGLPAPIEKTISKTKGQPREPQVYTLPPSREEMTKNQVSLTCLVKGFYPSDIAVEWESNGQPENNYKTTPPMLDSDGSFFLYSKLTVDKSRWQQGNVFSCSVMHEALHNHYTQKSLSLSPGK light: not shown	102%	98%	–	–
Tremelimumab incubated with 100 ppm H2O2 for 4 days (antibody, human IgG2, kappa, oxidation by peptide mapping: Met-256 79.8%, Met-362 36.3%, Met-401 63.7%, Met-432 53.0%) heavy: QVQLVESGGGVVQPGRSLRLSCAASGFTFSSYGMHWVRQAPGKGLEWVAVIWYDGSNKYYADSVKGRFTISRDNSKNTLYLQMNSLRAEDTAVYYCARDPRGATLYYYYYGMDVWGQGTTVTVSSASTKGPSVFPLAPCSRSTSESTAALGCLVKDYFPEPVTVSWNSGALTSGVHTFPAVLQSSGLYSLSSVVTVPSSNFGTQTYTCNVDHKPSNTKVDKTVERKCCVECPPCPAPPVAGPSVFLFPPKPKDTLMISRTPEVTCVVVDVSHEDPEVQFNWYVDGVEVHNAKTKPREEQFNSTFRVVSVLTVVHQDWLNGKEYKCKVSNKGLPAPIEKTISKTKGQPREPQVYTLPPSREEMTKNQVSLTCLVKGFYPSDIAVEWESNGQPENNYKTTPPMLDSDGSFFLYSKLTVDKSRWQQGNVFSCSVMHEALHNHYTQKSLSLSPGK light: not shown	–	–	98%	24%
Tremelimumab, cool white light about 2000 lux for 14 days, DP (2R vial, horizontal) (antibody, human IgG2, kappa, oxidation by peptide mapping: Trp-52 6.4%, Met-256 7.8%, Met-362 2.5%, Met-401 2.7%, Met-432 5.4%, also called DP (2R vial, horizontal) 14) heavy: QVQLVESGGGVVQPGRSLRLSCAASGFTFSSYGMHWVRQAPGKGLEWVAVIWYDGSNKYYADSVKGRFTISRDNSKNTLYLQMNSLRAEDTAVYYCARDPRGATLYYYYYGMDVWGQGTTVTVSSASTKGPSVFPLAPCSRSTSESTAALGCLVKDYFPEPVTVSWNSGALTSGVHTFPAVLQSSGLYSLSSVVTVPSSNFGTQTYTCNVDHKPSNTKVDKTVERKCCVECPPCPAPPVAGPSVFLFPPKPKDTLMISRTPEVTCVVVDVSHEDPEVQFNWYVDGVEVHNAKTKPREEQFNSTFRVVSVLTVVHQDWLNGKEYKCKVSNKGLPAPIEKTISKTKGQPREPQVYTLPPSREEMTKNQVSLTCLVKGFYPSDIAVEWESNGQPENNYKTTPPMLDSDGSFFLYSKLTVDKSRWQQGNVFSCSVMHEALHNHYTQKSLSLSPGK light: not shown	97%	92%	–	–
Tremelimumab, cool white light about 2000 lux for 14 days, DP (2R vial vertical) (antibody, human IgG2, kappa, oxidation by peptide mapping: Trp-52 5.4%, Met-256 7.1%, Met-362 2.2%, Met-401 2.5%, Met-432 4.7%) heavy: QVQLVESGGGVVQPGRSLRLSCAASGFTFSSYGMHWVRQAPGKGLEWVAVIWYDGSNKYYADSVKGRFTISRDNSKNTLYLQMNSLRAEDTAVYYCARDPRGATLYYYYYGMDVWGQGTTVTVSSASTKGPSVFPLAPCSRSTSESTAALGCLVKDYFPEPVTVSWNSGALTSGVHTFPAVLQSSGLYSLSSVVTVPSSNFGTQTYTCNVDHKPSNTKVDKTVERKCCVECPPCPAPPVAGPSVFLFPPKPKDTLMISRTPEVTCVVVDVSHEDPEVQFNWYVDGVEVHNAKTKPREEQFNSTFRVVSVLTVVHQDWLNGKEYKCKVSNKGLPAPIEKTISKTKGQPREPQVYTLPPSREEMTKNQVSLTCLVKGFYPSDIAVEWESNGQPENNYKTTPPMLDSDGSFFLYSKLTVDKSRWQQGNVFSCSVMHEALHNHYTQKSLSLSPGK light: not shown	90%	94%	–	–
